Results from IntAct's records for PubMed 9722563.

B1: Integrin beta-1 (Gallus gallus (Chicken)), P07228 (parent)
chain: MAETNLTLLTWAGILCCLIWSGSAQQGGSDCIKANAKSCGECIQAGPNCGWCKKTDFLQEGEPTSARCDDLAALKSKGCPEQDIENPRGSKRVLEDREVTNRKIGAAEKLKPEAITQIQPQKLVLQLRVGEPQTFSLKFKRAEDYPIDLYYLMDLSYSMKDDLENVKSLGTALMREMEKITSDFRIGFGSFVEKTVMPYISTTPAKLRNPCTGDQNCTSPFSYKNVLSLTSEGNKFNELVGKQHISGNLDSPEGGFDAIMQVAVCGDQIGWRNVTRLLVFSTDAGFHFAGDGKLGGIVLPNDGKCHLENNMYTMSHYYDYPSIAHLVQKLSENNIQTIFAVTEEFQAVYKELKNLIPKSAVGTLSSNSSNVIQLIIDAYNSLSSEVILENSKLPKEVTISYKSYCKNGVNDTQEDGRKCSNISIGDEVRFEINVTANECPKKGQNETIKIKPLGFTEEVEIHLQFICDCLCQSEGEPNSPACHDGNGTFECGACRCNEGRIGRLCECSTDEVNSEDMDAYCRRENSTEICSNNGECICGQCVCKKRENTNEVYSGKYCECDNFNCDRSNGLICGGNGICKCRVCECFPNFTGSACDCSLDTTPCMAGNGQICNGRGTCECGTCNCTDPKFQGPTCEMCQTCLGVCAEHKDCVQCRAFEKGEKKETCSQECMHFNMTRVESRGKLPQPVHPDPLSHCKEKDVGDCWFYFTYSVNSNGEASVHVVETPECPSGPDIIPIVAGVVAGIVLIGLALLLIWKLLMIIHDRREFAKFEKEKMNAKWDTGENPIYKSAVTTVVNPKYEGK

Variants of: B1
Details: with flna_human FLNA

effect of a mutation on the interaction	Variant
decreasing interaction	D764V
decreasing interaction	N797I
decreasing interaction	N785D
decreasing interaction	Y788F
disrupting interaction	Y788A

Second part, the variant before the results:

Variant	effect of a mutation on the interaction
N797D	decreasing interaction
P786A	decreasing interaction
Y788E	disrupting interaction
